Source: publication PMC3751551

Biological target: T1, Vm-EYFP, P05923
T1 chain: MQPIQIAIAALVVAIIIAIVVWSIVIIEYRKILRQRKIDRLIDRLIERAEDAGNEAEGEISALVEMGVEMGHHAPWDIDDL
Assay: BRET assay
Settings: chain shown with the change; HEK293T cells; forty-eight hours post-transfection; parent: est. 1.6; read off a plot

Row | Molecule | response
1 | Rluc-BST2, Q10589 P40A; L41A; I42A (protein) MASTSYDYCRVPMEDGDKRCKLLLGIGILVLLIIVILGVAAAIFTIKANSEACRDGLRAVMECRNVTHLLQQELTEAQKGFQDVEAQAATCNHTVMALMASLDAEKAQGQKKVEELEGEITTLNHKLQDASAEVERLRRENQVLSVRIADKKYYPSSQDSS | 0.82
2 | Rluc-BST2, Q10589 L22A; L23A; L24A (protein) MASTSYDYCRVPMEDGDKRCKAAAGIGILVLLIIVILGVPLIIFTIKANSEACRDGLRAVMECRNVTHLLQQELTEAQKGFQDVEAQAATCNHTVMALMASLDAEKAQGQKKVEELEGEITTLNHKLQDASAEVERLRRENQVLSVRIADKKYYPSSQDSS | 1.3
3 | Rluc-BST2, Q10589 L37A; G38A; V39A (protein) MASTSYDYCRVPMEDGDKRCKLLLGIGILVLLIIVIAAAPLIIFTIKANSEACRDGLRAVMECRNVTHLLQQELTEAQKGFQDVEAQAATCNHTVMALMASLDAEKAQGQKKVEELEGEITTLNHKLQDASAEVERLRRENQVLSVRIADKKYYPSSQDSS | 0.95
4 | Rluc-BST2, Q10589 I43A; F44A; T45A (protein) MASTSYDYCRVPMEDGDKRCKLLLGIGILVLLIIVILGVPLIAAAIKANSEACRDGLRAVMECRNVTHLLQQELTEAQKGFQDVEAQAATCNHTVMALMASLDAEKAQGQKKVEELEGEITTLNHKLQDASAEVERLRRENQVLSVRIADKKYYPSSQDSS | 1.6
5 | Rluc-BST2, Q10589 L31A; L32A; I33A (protein) MASTSYDYCRVPMEDGDKRCKLLLGIGILVAAAIVILGVPLIIFTIKANSEACRDGLRAVMECRNVTHLLQQELTEAQKGFQDVEAQAATCNHTVMALMASLDAEKAQGQKKVEELEGEITTLNHKLQDASAEVERLRRENQVLSVRIADKKYYPSSQDSS | 1.3
6 | Rluc-BST2, Q10589 G25A; I26A; G27A (protein) MASTSYDYCRVPMEDGDKRCKLLLAAAILVLLIIVILGVPLIIFTIKANSEACRDGLRAVMECRNVTHLLQQELTEAQKGFQDVEAQAATCNHTVMALMASLDAEKAQGQKKVEELEGEITTLNHKLQDASAEVERLRRENQVLSVRIADKKYYPSSQDSS | 1.7
7 | Rluc-BST2, Q10589 I28A; L29A; V30A (protein) MASTSYDYCRVPMEDGDKRCKLLLGIGAAALLIIVILGVPLIIFTIKANSEACRDGLRAVMECRNVTHLLQQELTEAQKGFQDVEAQAATCNHTVMALMASLDAEKAQGQKKVEELEGEITTLNHKLQDASAEVERLRRENQVLSVRIADKKYYPSSQDSS | 1.4
8 | Rluc-BST2, Q10589 I34A; V35A; I36A (protein) MASTSYDYCRVPMEDGDKRCKLLLGIGILVLLIAAALGVPLIIFTIKANSEACRDGLRAVMECRNVTHLLQQELTEAQKGFQDVEAQAATCNHTVMALMASLDAEKAQGQKKVEELEGEITTLNHKLQDASAEVERLRRENQVLSVRIADKKYYPSSQDSS | 0.88
9 | Rluc-BST2, Q10589 I46A; K47A (protein) MASTSYDYCRVPMEDGDKRCKLLLGIGILVLLIIVILGVPLIIFTAAANSEACRDGLRAVMECRNVTHLLQQELTEAQKGFQDVEAQAATCNHTVMALMASLDAEKAQGQKKVEELEGEITTLNHKLQDASAEVERLRRENQVLSVRIADKKYYPSSQDSS | 1.6

Same assay, conditions: chain shown with the change; HEK293T cells; parent: est. 1.6; read off a plot

Row | Molecule | response
10 | Rluc-BST2, Q10589 V35A (protein) MASTSYDYCRVPMEDGDKRCKLLLGIGILVLLIIAILGVPLIIFTIKANSEACRDGLRAVMECRNVTHLLQQELTEAQKGFQDVEAQAATCNHTVMALMASLDAEKAQGQKKVEELEGEITTLNHKLQDASAEVERLRRENQVLSVRIADKKYYPSSQDSS | 1.5
11 | Rluc-BST2, Q10589 G38A (protein) MASTSYDYCRVPMEDGDKRCKLLLGIGILVLLIIVILAVPLIIFTIKANSEACRDGLRAVMECRNVTHLLQQELTEAQKGFQDVEAQAATCNHTVMALMASLDAEKAQGQKKVEELEGEITTLNHKLQDASAEVERLRRENQVLSVRIADKKYYPSSQDSS | 1.5
12 | Rluc-BST2, Q10589 L41A (protein) MASTSYDYCRVPMEDGDKRCKLLLGIGILVLLIIVILGVPAIIFTIKANSEACRDGLRAVMECRNVTHLLQQELTEAQKGFQDVEAQAATCNHTVMALMASLDAEKAQGQKKVEELEGEITTLNHKLQDASAEVERLRRENQVLSVRIADKKYYPSSQDSS | 0.93
13 | Rluc-BST2, Q10589 I42A (protein) MASTSYDYCRVPMEDGDKRCKLLLGIGILVLLIIVILGVPLAIFTIKANSEACRDGLRAVMECRNVTHLLQQELTEAQKGFQDVEAQAATCNHTVMALMASLDAEKAQGQKKVEELEGEITTLNHKLQDASAEVERLRRENQVLSVRIADKKYYPSSQDSS | 1.4
14 | Rluc-BST2, Q10589 V39A (protein) MASTSYDYCRVPMEDGDKRCKLLLGIGILVLLIIVILGAPLIIFTIKANSEACRDGLRAVMECRNVTHLLQQELTEAQKGFQDVEAQAATCNHTVMALMASLDAEKAQGQKKVEELEGEITTLNHKLQDASAEVERLRRENQVLSVRIADKKYYPSSQDSS | 1.6
15 | Rluc-BST2, Q10589 I36A (protein) MASTSYDYCRVPMEDGDKRCKLLLGIGILVLLIIVALGVPLIIFTIKANSEACRDGLRAVMECRNVTHLLQQELTEAQKGFQDVEAQAATCNHTVMALMASLDAEKAQGQKKVEELEGEITTLNHKLQDASAEVERLRRENQVLSVRIADKKYYPSSQDSS | 1.5
16 | Rluc-BST2, Q10589 I34A (protein) MASTSYDYCRVPMEDGDKRCKLLLGIGILVLLIAVILGVPLIIFTIKANSEACRDGLRAVMECRNVTHLLQQELTEAQKGFQDVEAQAATCNHTVMALMASLDAEKAQGQKKVEELEGEITTLNHKLQDASAEVERLRRENQVLSVRIADKKYYPSSQDSS | 1.1
17 | Rluc-BST2, Q10589 P40A (protein) MASTSYDYCRVPMEDGDKRCKLLLGIGILVLLIIVILGVALIIFTIKANSEACRDGLRAVMECRNVTHLLQQELTEAQKGFQDVEAQAATCNHTVMALMASLDAEKAQGQKKVEELEGEITTLNHKLQDASAEVERLRRENQVLSVRIADKKYYPSSQDSS | 1.1
18 | Rluc-BST2, Q10589 L37A (protein) MASTSYDYCRVPMEDGDKRCKLLLGIGILVLLIIVIAGVPLIIFTIKANSEACRDGLRAVMECRNVTHLLQQELTEAQKGFQDVEAQAATCNHTVMALMASLDAEKAQGQKKVEELEGEITTLNHKLQDASAEVERLRRENQVLSVRIADKKYYPSSQDSS | 0.77

biological target: Rluc-BST2 (UniProt Q10589); assay: BRET assay; settings: HEK293T cells; parent: est. 1.4; read off a plot

Row | Molecule | response
19 | Vm-EYFP (from UniProt P05923) V21A | 1.1
20 | Vm-EYFP (from UniProt P05923) I16A | 1.2
21 | Vm-EYFP (from UniProt P05923) A14V | 1.2
22 | Vm-EYFP (from UniProt P05923) I15A | 1.2
23 | Vm-EYFP (from UniProt P05923) I5A; V6A; A7V | 0.98
24 | Vm-EYFP (from UniProt P05923) V20A; V21A; W22A | 0.41
25 | Vm-EYFP (from UniProt P05923) I26A | 1.3
26 | Vm-EYFP (from UniProt P05923) I17A | 1.4
27 | Vm-EYFP (from UniProt P05923) I27A | 1.3
28 | Vm-EYFP (from UniProt P05923) I19A | 1.2
29 | Vm-EYFP (from UniProt P05923) A14V; I15A; I16A | 0.76
30 | Vm-EYFP (from UniProt P05923) I8A; V9A; A10V | 1.2
31 | Vm-EYFP (from UniProt P05923) V20A | 1.3
32 | Vm-EYFP (from UniProt P05923) L11A; V12A; V13A | 0.9
33 | Vm-EYFP (from UniProt P05923) V13A | 1.3
34 | Vm-EYFP (from UniProt P05923) L11A | 0.93
35 | Vm-EYFP (from UniProt P05923) A18V | 0.52
36 | Vm-EYFP (from UniProt P05923) W22A | 0.69
37 | Vm-EYFP (from UniProt P05923) S23A; I24A; V25A | 1.1
38 | Vm-EYFP (from UniProt P05923) I17A; A18V; I19A | 0.58
39 | Vm-EYFP (from UniProt P05923) E28A | 1.1
40 | Vm-EYFP (from UniProt P05923) V12A | 1.3
41 | Vm-EYFP (from UniProt P05923) I26A; I27A; E28A | 0.85
